Here are results for 39 variants from the Human Domainome abundance scans (Beltran et al. 2025).

B1: Pituitary-specific positive transcription factor 1, residues 130 to 198; numbered along this chain, P28069 (parent)
chain: RELEKFANEFKVRRIKLGYTQTNVGEALAAVHGSEFSQTTICRFENLQLSFKNACKLKAILSKWLEEAE

± gives the uncertainty stated by the source.

This series covers variants of B1. As to the kind of experiment: abundance fitness (aPCA) (normalised: wild type 0, dead -1); higher = more abundant; growth selection in yeast, the domain comes from the species named. As to conditions: Homo sapiens.
RELEKFANEFKVRRIKLLYTQTNVGEALAAVHGSEFSQTTICRFENLQLSFKNACKLKAILSKWLEEAE [G18L]: the abundance fitness was -0.62 ± 0.1.
The figure for RELEKFANEFKVRRIKLHYTQTNVGEALAAVHGSEFSQTTICRFENLQLSFKNACKLKAILSKWLEEAE [G18H] is -0.742 ± 0.28; for RELEKFANEFKVRRIKLWYTQTNVGEALAAVHGSEFSQTTICRFENLQLSFKNACKLKAILSKWLEEAE [G18W] it is -0.83 ± 0.23.
Then RELEKFANEFKVRRIKLVYTQTNVGEALAAVHGSEFSQTTICRFENLQLSFKNACKLKAILSKWLEEAE [G18V], with -0.912 ± 0.16; and RELEKFANEFKVRRIKLRYTQTNVGEALAAVHGSEFSQTTICRFENLQLSFKNACKLKAILSKWLEEAE [G18R], with -0.84 ± 0.11; and RELEKFANEFKVRRIKLDYTQTNVGEALAAVHGSEFSQTTICRFENLQLSFKNACKLKAILSKWLEEAE [G18D], with -0.556 ± 0.15.
Then RELEKFANEFKVRRIKLYYTQTNVGEALAAVHGSEFSQTTICRFENLQLSFKNACKLKAILSKWLEEAE [G18Y], with -0.825 ± 0.28; and RELEKFANEFKVRRIKLGGTQTNVGEALAAVHGSEFSQTTICRFENLQLSFKNACKLKAILSKWLEEAE [Y19G], with -0.501 ± 0.4.
With RELEKFANEFKVRRIKLGRTQTNVGEALAAVHGSEFSQTTICRFENLQLSFKNACKLKAILSKWLEEAE [Y19R], the abundance fitness is -0.718 ± 0.23.
Then RELEKFANEFKVRRIKLGCTQTNVGEALAAVHGSEFSQTTICRFENLQLSFKNACKLKAILSKWLEEAE [Y19C], with -0.562 ± 0.15.
Then RELEKFANEFKVRRIKLGHTQTNVGEALAAVHGSEFSQTTICRFENLQLSFKNACKLKAILSKWLEEAE [Y19H], with -0.376 ± 0.38; and RELEKFANEFKVRRIKLGWTQTNVGEALAAVHGSEFSQTTICRFENLQLSFKNACKLKAILSKWLEEAE [Y19W], with -0.283 ± 0.16.
For the variant RELEKFANEFKVRRIKLGQTQTNVGEALAAVHGSEFSQTTICRFENLQLSFKNACKLKAILSKWLEEAE [Y19Q], the abundance fitness was -0.149 ± 0.14.
On to RELEKFANEFKVRRIKLGITQTNVGEALAAVHGSEFSQTTICRFENLQLSFKNACKLKAILSKWLEEAE [Y19I], for which the abundance fitness is -0.382 ± 0.21.
RELEKFANEFKVRRIKLGFTQTNVGEALAAVHGSEFSQTTICRFENLQLSFKNACKLKAILSKWLEEAE [Y19F]: the abundance fitness is -0.501 ± 0.4.
The figure for RELEKFANEFKVRRIKLGKTQTNVGEALAAVHGSEFSQTTICRFENLQLSFKNACKLKAILSKWLEEAE [Y19K] is -0.674 ± 0.21; for RELEKFANEFKVRRIKLGDTQTNVGEALAAVHGSEFSQTTICRFENLQLSFKNACKLKAILSKWLEEAE [Y19D] it is -0.696 ± 0.5; for RELEKFANEFKVRRIKLGVTQTNVGEALAAVHGSEFSQTTICRFENLQLSFKNACKLKAILSKWLEEAE [Y19V] it is -0.855 ± 0.34.
The figure for RELEKFANEFKVRRIKLGSTQTNVGEALAAVHGSEFSQTTICRFENLQLSFKNACKLKAILSKWLEEAE [Y19S] is -0.696 ± 0.23; for RELEKFANEFKVRRIKLGATQTNVGEALAAVHGSEFSQTTICRFENLQLSFKNACKLKAILSKWLEEAE [Y19A] it is -0.421 ± 0.19; for RELEKFANEFKVRRIKLGETQTNVGEALAAVHGSEFSQTTICRFENLQLSFKNACKLKAILSKWLEEAE [Y19E] it is -0.934 ± 0.33.
The figure for RELEKFANEFKVRYIKLGYTQTNVGEALAAVHGSEFSQTTICRFENLQLSFKNACKLKAILSKWLEEAE [R14Y] is -0.745 ± 0.2; for RELEKFANEFKVRRIRLGYTQTNVGEALAAVHGSEFSQTTICRFENLQLSFKNACKLKAILSKWLEEAE [K16R] it is -0.027 ± 0.044.
As for RELEKFANEFKVRRIHLGYTQTNVGEALAAVHGSEFSQTTICRFENLQLSFKNACKLKAILSKWLEEAE [K16H], the abundance fitness was -0.786 ± 0.37.
Then RELEKFANEFKVRRIGLGYTQTNVGEALAAVHGSEFSQTTICRFENLQLSFKNACKLKAILSKWLEEAE [K16G], with -0.559 ± 0.088; and RELEKFANEFKVRRIMLGYTQTNVGEALAAVHGSEFSQTTICRFENLQLSFKNACKLKAILSKWLEEAE [K16M], with -0.365 ± 0.13.
The figure for RELEKFANEFKVRRIFLGYTQTNVGEALAAVHGSEFSQTTICRFENLQLSFKNACKLKAILSKWLEEAE [K16F] is -0.909 ± 0.21; for RELEKFANEFKVRRIDLGYTQTNVGEALAAVHGSEFSQTTICRFENLQLSFKNACKLKAILSKWLEEAE [K16D] it is -0.665 ± 0.21; for RELEKFANEFKVRRIALGYTQTNVGEALAAVHGSEFSQTTICRFENLQLSFKNACKLKAILSKWLEEAE [K16A] it is -0.08 ± 0.092.
The figure for RELEKFANEFKVRRINLGYTQTNVGEALAAVHGSEFSQTTICRFENLQLSFKNACKLKAILSKWLEEAE [K16N] is -0.122 ± 0.076; for RELEKFANEFKVRRIVLGYTQTNVGEALAAVHGSEFSQTTICRFENLQLSFKNACKLKAILSKWLEEAE [K16V] it is -0.812 ± 0.18; for RELEKFANEFKVRRITLGYTQTNVGEALAAVHGSEFSQTTICRFENLQLSFKNACKLKAILSKWLEEAE [K16T] it is -0.809 ± 0.15.
In the case of RELEKFANEFKVRRISLGYTQTNVGEALAAVHGSEFSQTTICRFENLQLSFKNACKLKAILSKWLEEAE [K16S], the abundance fitness was -0.365 ± 0.078.
The figure for RELEKFANEFKVRRICLGYTQTNVGEALAAVHGSEFSQTTICRFENLQLSFKNACKLKAILSKWLEEAE [K16C] is -0.121 ± 0.17; for RELEKFANEFKVRRILLGYTQTNVGEALAAVHGSEFSQTTICRFENLQLSFKNACKLKAILSKWLEEAE [K16L] it is -0.468 ± 0.097.
The figure for RELEKFANEFKVRRIYLGYTQTNVGEALAAVHGSEFSQTTICRFENLQLSFKNACKLKAILSKWLEEAE [K16Y] is -0.64 ± 0.12.
The figure for RELEKFANEFKVRRIKLGYCQTNVGEALAAVHGSEFSQTTICRFENLQLSFKNACKLKAILSKWLEEAE [T20C] is -0.871 ± 0.21; for RELEKFANEFKVRRIKLGYGQTNVGEALAAVHGSEFSQTTICRFENLQLSFKNACKLKAILSKWLEEAE [T20G] it is -0.662 ± 0.12.
On to RELEKFANEFKVRRIKLGYEQTNVGEALAAVHGSEFSQTTICRFENLQLSFKNACKLKAILSKWLEEAE [T20E], for which the abundance fitness is -0.536 ± 0.22.
